According to PMC2990805 (2012):

Biological target: T1, Cyt1Aa (Bacillus thuringiensis subsp. …, UniProt P0A382)
T1 chain: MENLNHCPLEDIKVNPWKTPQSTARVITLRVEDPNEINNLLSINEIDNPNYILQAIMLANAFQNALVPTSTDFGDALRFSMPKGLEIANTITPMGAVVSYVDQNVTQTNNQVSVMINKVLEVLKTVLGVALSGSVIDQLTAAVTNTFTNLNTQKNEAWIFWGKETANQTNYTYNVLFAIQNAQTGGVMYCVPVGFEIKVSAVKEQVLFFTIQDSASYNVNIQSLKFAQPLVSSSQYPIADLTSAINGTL
Experiment: ELISA

B1: Cry4Ba (protein)
chain: NSGYPLANDLQGSMKNTNYKDWLAMCENNQQYGVNPAAINSSSVSTALKVAGAILKFVNPPAGTVLTVLSAVLPILWPTNTPTPERVWNDFMTNTGNLIDQTVTAYVRTDANAKMTVVKDYLDQYTTKFNTWKREPNNQSYRTAVITQFNLTSAKLRETAVYFSNLVGYELLLLPIYAQVANFNLLLIRDGLINAQEWSLARSAGDQLYNTMVQYTKEYIAHSITWYNKGLDVLRNKSNGQWITFNDYKREMTIQVLDILALFASYDPRRYPADKIDNTKLSKTEFTREIYTALVESPSSKSIAALEAALTRDVHLFTWLKRVDFWTNTIYQDLRFLSANKIGFSYTNSSAMQESGIYGSSGFGSNLTHQIQLNSNVYKTSITDTSSPSNRVTKMDFYKIDGTLASYNSNITPTPEGLRTTFFGFSTNENTPNQPTVNDYTHILSYIKTDVIDYNSNRVSFAWTHKIVDPNNQIYTDAITQVPAVKSNFLNATAKVIKGPGHTGGDLVALTSNGTLSGRMEIQCKTSIFNDPTRSYGLRIRYAANSPIVLNVSYVLQGVSRGTTISTESTFSRPNNIIPTDLKYEEFRYKDPFDAIVPMRLSSNQLITIAIQPLNMTSNNQVIIDRIEIIPITQSVLDETENQNLESEREVVNALFTNDAKDALNIGTTDYDIDQAANLVECISEELYPKEKMLLLDEVKNAKQLSQSRNVLQNGDFESATLGWTTSDNITIQEDDPIFKGHYLHMSGARDIDGTIFPTYIFQKIDESKLKPYTRYLVRGFVGSSKDVELVVSRYGEEIDAIMNVPADLNYLYPSTFDCEGSNRCETSAVPANIGNTSDMLYSCQYDTGKKHVVCQDSHQFSFTIDTGALDTNENIGVWVMFKISSPDGYASLDNLEVIEEGPIDGEALSRVKHMEKKWNDQMEAKRSETQQAYDVAKQAIDALFTNVQDEALQFDTTLAQIQYAEYLVQSIPYVYNDWLSDVPGMNYDIYVELDARVAQARYLYDTRNIIKNGDFTQGVMGWHVTGNADVQQIDGVSVLVLSNWSAGVSQNVHLQHNHGYVLRVIAKKEGPGNGYVTLMDCEENQEKLTFTSCEEGYITKTVDVFPDTDRVRIEIGETEGSFYIESIELICMNE
modifications: trypsin-activated Cry4Ba, proteinase K-activated Cyt1Aa
**Q.** Which Kd does the source give for B1 here?
**A.** Its Kd is 47 nM.
